# Reference: patent JP2006306895A (dated 2006)
# Target: T1, ヒトPTHrP(1-34) (human)
# T1 construct: Synthetic peptide, coated on ELISA plates (Peptide Institute) or mixed with antibody in the cAMP neutralisation assay; also called human parathyroid hormone related protein (1-34)
# Assay: ELISA, plate-coated human PTHrP(1-34)
row,Binder,binding result
1,"ヒト型化#23-57-137-1抗体 L鎖バージョン""j"" (antibody, V domains shown, Humanized H chain version a with human Cγ1; human lambda L chain C region; also called hMBC1HcDNA/pCOS1 + hMBC1Ljλ/pCOS1; version j) VH: QVQLVESGGGVVQPGRSLRLSCAASGFTFSSYGMSWVRQAPGKGLEWVATISSGGSYTYYPDSVKGRFTISRDNSKNTLYLQMNSLRAEDTAVYYCARQTTMTYFAYWGQGTLVTVSS VL: QLVLTQSPSASASLGASVKLTCTLSSQHSTYTIEWYQQQPEKGPKYLMDLKQDGSHSTGDGIPDRFSGSSSGAERYLTISSLQSEDEADYYCGVGDTIKEQFVYVFGGGTKLTVLG",binds
2,"ヒト型化#23-57-137-1抗体 L鎖バージョン""l"" (antibody, V domains shown, Humanized H chain version a with human Cγ1; human lambda L chain C region; also called hMBC1HcDNA/pCOS1 + hMBC1Llλ/pCOS1; version l) VH: QVQLVESGGGVVQPGRSLRLSCAASGFTFSSYGMSWVRQAPGKGLEWVATISSGGSYTYYPDSVKGRFTISRDNSKNTLYLQMNSLRAEDTAVYYCARQTTMTYFAYWGQGTLVTVSS VL: QLVLTQSPSASASLGASVKLTCTLSSQHSTYTIEWYQQQPEKGPKYVMDLKQDGSHSTGDGIPDRFSGSSSGAERYLTISSLQSEDEADYYCGVGDTIKEQFVYVFGGGTKLTVLG",binds
3,"ヒト型化#23-57-137-1抗体 L鎖バージョン""m"" (antibody, V domains shown, Humanized H chain version a with human Cγ1; human lambda L chain C region; also called hMBC1HcDNA/pCOS1 + hMBC1Lmλ/pCOS1; version m) VH: QVQLVESGGGVVQPGRSLRLSCAASGFTFSSYGMSWVRQAPGKGLEWVATISSGGSYTYYPDSVKGRFTISRDNSKNTLYLQMNSLRAEDTAVYYCARQTTMTYFAYWGQGTLVTVSS VL: QLVLTQSPSASASLGASVKLTCTLSSQHSTYTIEWYQQQPEKGPRYLMDLKQDGSHSTGDGIPDRFSGSSSGAERYLTISSLQSEDEADYYCGVGDTIKEQFVYVFGGGTKLTVLG",binds
4,"ヒト型化#23-57-137-1抗体 L鎖バージョン""o"" (antibody, V domains shown, Humanized H chain version a with human Cγ1; human lambda L chain C region; also called hMBC1HcDNA/pCOS1 + hMBC1Loλ/pCOS1; version o) VH: QVQLVESGGGVVQPGRSLRLSCAASGFTFSSYGMSWVRQAPGKGLEWVATISSGGSYTYYPDSVKGRFTISRDNSKNTLYLQMNSLRAEDTAVYYCARQTTMTYFAYWGQGTLVTVSS VL: QLVLTQSPSASASLGASVKLTCTLSSQHSTYTIEWYQQQPEKGPRYVMDLKQDGSHSTGDGIPDRFSGSSSGAERYLTISSLQSEDEADYYCGVGDTIKEQFVYVFGGGTKLTVLG",binds
5,"ヒト型化#23-57-137-1抗体 L鎖バージョン""q"" (antibody, V domains shown, Humanized H chain version a with human Cγ1; human lambda L chain C region; also called ヒト型化抗体バージョンq; hMBC1HcDNA/pCOS1 + hMBC1Lqλ/pCOS1) VH: QVQLVESGGGVVQPGRSLRLSCAASGFTFSSYGMSWVRQAPGKGLEWVATISSGGSYTYYPDSVKGRFTISRDNSKNTLYLQMNSLRAEDTAVYYCARQTTMTYFAYWGQGTLVTVSS VL: QLVLTQSPSASASLGASVKLTCTLSSQHSTYTIEWYQQQPEKGPKYLMDLKQDGSHSTGDGIPDRFSGSSSGAERYLTISSLQSEDEADYICGVGDTIKEQFVYVFGGGTKLTVLG",binds
6,"ヒト型化#23-57-137-1抗体 L鎖バージョン""t"" (antibody, V domains shown, Humanized H chain version a with human Cγ1; human lambda L chain C region; also called hMBC1HcDNA/pCOS1 + hMBC1Ltλ/pCOS1; version t) VH: QVQLVESGGGVVQPGRSLRLSCAASGFTFSSYGMSWVRQAPGKGLEWVATISSGGSYTYYPDSVKGRFTISRDNSKNTLYLQMNSLRAEDTAVYYCARQTTMTYFAYWGQGTLVTVSS VL: QLVLTQSPSASASLGASVKLTCTLSSQHSTYTIEWYQQQPEKGPRYVMDLKQDGSHSTGDGIPDRFSGSSSGAERYLTISSLQSEDEADYICGVGDTIKEQFVYVFGGGTKLTVLG",binds
7,"ヒト型化H鎖バージョン""a""とキメラL鎖を組み合わせた抗体 (antibody, V domains shown, Human Cγ1 H chain C region; also called humanized H chain version a + chimeric L chain) VH: QVQLVESGGGVVQPGRSLRLSCAASGFTFSSYGMSWVRQAPGKGLEWVATISSGGSYTYYPDSVKGRFTISRDNSKNTLYLQMNSLRAEDTAVYYCARQTTMTYFAYWGQGTLVTVSS VL: QLVLTQSSSASFSLGASAKLTCTLSSQHSTYTIEWYQQQPLKPPKYVMDLKQDGSHSTGDGIPDRFSGSSSGADRYLSISNIQPEDEAMYICGVGDTIKEQFVYVFGGGTKVTVLG",binds
